Biological target: KDR/Flk-1 antibody
Test: cell-based or functional assay

## PABA.CAE retroviral vector (Protein A at BstEII and Avr + Wild Type CAE env) (from UniProt P38507 212-269)
  # Blue Colonies (X-gal) on 5 x 10^5 KSY1 cells/well contacted with 1000 ng KDR/Flk-1 Ab, MOI = 4 (blue colonies): 648
  # Blue Colonies (X-gal) on 5 x 10^5 KSY1 cells/well contacted with 5000 ng KDR/Flk-1 Ab, MOI = 4 (blue colonies): 946

## PABN.CAE retroviral vector (Protein A at BstEII and Ngo + Wild Type CAE env) (from UniProt P38507 212-269)
  # Blue Colonies (X-gal) on 1 x 10^5 KSY1 cells/well contacted with 1000 ng KDR/Flk-1 Ab, MOI = 10 (blue colonies): 1560
  # Blue Colonies (X-gal) on 1 x 10^5 KSY1 cells/well contacted with 5000 ng KDR/Flk-1 Ab, MOI = 10 (blue colonies): 2550

## wild-type CAE virions (Wild Type CAE env, amphotropic)
  # Blue Colonies (X-gal) on 1 x 10^5 KSY1 cells/well contacted with 5000 ng KDR/Flk-1 Ab, MOI = 10 (blue colonies): 20
  # Blue Colonies (X-gal) on 5 x 10^5 KSY1 cells/well contacted with 5000 ng KDR/Flk-1 Ab, MOI = 4 (blue colonies): 66
